Laboratory results: paper PMC12148503, “Molecular Basis of Interchain Disulfide Bond Formation in BMP-9 and BMP-10” (Journal of molecular biology, 2025)

Target: the molecule itself
Assay: non-reducing SDS-PAGE with densitometry; IMAC-purified pro-proteins from expi293 conditioned medium, non-reduced against reduced; bands of disulfide-linked dimer and monomer

Protein | binding result
Pro-(fr)-Act-A (natural protein, human, UniProt P08476 27-426, looked up, Human proINHBA residues 27-426; The results call it N-terminally histidine-tagged and purified by that tag; the methods say 'with no tag or processing site'; Furin processing incomplete; also called Pro-Activin-A; Pro-Act-A; source: expi293 (suspension HEK293), secreted; purified from conditioned medium by the histidine tag (IMAC); not shown: His tag, N-terminal, kept) EGHSAAPDCPSCALAALPKDVPNSQPEMVEAVKKHILNMLHLKKRPDVTQPVPKAALLNAIRKLHVGKVGENGYVEIEDDIGRRAEMNELMEQTSEIITFAESGTARKTLHFEISKEGSDLSVVERAEVWLFLKVPKANRTRTKVTIRLFQQQKHPQGSLDTGEEAEEVGLKGERSELLLSEKVVDARKSTWHVFPVSSSIQRLLDQGKSSLDVRIACEQCQESGASLVLLGKKKKKEEEGEGKKKGGGEGGAGADEEKEQSHRPFLMLQARQSEDHPHRRRRRGLECDGKVNICCKKQFFVSFKDIGWNDWIIAPSGYHANYCEGECPSHIAGTSGSSLSFHSTVINHYRMRGHSPFANLKSCCVPTKLRPMSMLYYDDGQNIIKKDIQNMIVEECGCS | binds
Pro-(fr)-TGF-β2 (natural protein, human, UniProt P61812-1 19-414, looked up, Human proTGF-β2 residues 19-414; Behind the mouse Ig signal peptide and the 8xHis tag, no processing site after the tag; Furin processing incomplete; also called Pro-TGF-β2; source: expi293 (suspension HEK293), secreted; purified from conditioned medium by the histidine tag (IMAC); not shown: 8xHis, N-terminal, kept) LSLSTSSTLDMDQFMRKRIEAIRGQILSKLKLTSPPEDYPEPEEVPPEVISIYNSTRDLLQEKASRRAAACERERSDEEYYAKEVYKIDMPPFFPSENAIPPTFYRPYFRIVRFDVSAMEKNASNLVKAEFRVFRLQNPKARVAEQRIELYQILKSKDLTSPTQRYIDSKVVKTRAEGEWLSFDVTDAVHEWLHHKDRNLGFKISLHCPCCTFVPSNNYIIPNKSEELEARFAGIDGTSTYTSGDQKTIKSTRKKNSGKTPHLLLMLLPSYRLESQQTNRRKKRALDAAYCFRNVQDNCCLRPLYIDFKRDLGWKWIHEPKGYNANFCAGACPYLWSSDTQHSRVLSLYNTINPEASASPCCVSQDLEPLTILYYIGKTPKIEQLSNMIVKSCKCS | binds
Pro-(fr)-BMP-9 (natural protein, human, UniProt Q9UK05 23-429, looked up, Human proBMP9 residues 23-429 with the natural furin site; Partially processed by furin: the sample holds unprocessed pro-protein, prodomain and growth factor (12 and 24 kDa); also called Pro-BMP-9 with unmodified furin processing site; wild-type BMP-9; source: expi293 (suspension HEK293), secreted; purified from conditioned medium by IMAC; not shown: 8xHis, N-terminal, kept) KPLQSWGRGSAGGNAHSPLGVPGGGLPEHTFNLKMFLENVKVDFLRSLNLSGVPSQDKTRVEPPQYMIDLYNRYTSDKSTTPASNIVRSFSMEDAISITATEDFPFQKHILLFNISIPRHEQITRAELRLYVSCQNHVDPSHDLKGSVVIYDVLDGTDAWDSATETKTFLVSQDIQDEGWETLEVSSAVKRWVRSDSTKSKNKLEVTVESHRKGCDTLDISVPPGSRNLPFFVVFSNDHSSGTKETRLELREMISHEQESVLKKLSKDGSTEAGESSHEEDTDGHVAAGSTLARRKRSSGAGSHCQKTSLRVNFEDIGWDSWIIAPKEYEAYECKGGCFFPLADDVTPTKHAIVQTLVHLKFPTKVGKACCVPTKLSPISVLYKDDMGVPTLKYHYEGMSVAECGCR | binds
Pro-(X)-BMP-9 G389S (natural protein, human, UniProt Q9UK05 23-429, looked up, Human proBMP9 residues 23-429; mutant based on Pro-(X)-BMP-9; also called G389S BMP-9; source: expi293 (suspension HEK293), secreted; purified from conditioned medium by IMAC; not shown: 8xHis, N-terminal, kept) KPLQSWGRGSAGGNAHSPLGVPGGGLPEHTFNLKMFLENVKVDFLRSLNLSGVPSQDKTRVEPPQYMIDLYNRYTSDKSTTPASNIVRSFSMEDAISITATEDFPFQKHILLFNISIPRHEQITRAELRLYVSCQNHVDPSHDLKGSVVIYDVLDGTDAWDSATETKTFLVSQDIQDEGWETLEVSSAVKRWVRSDSTKSKNKLEVTVESHRKGCDTLDISVPPGSRNLPFFVVFSNDHSSGTKETRLELREMISHEQESVLKKLSKDGSTEAGESSHEEDTDGHVAAGSTLAIEGRSSGAGSHCQKTSLRVNFEDIGWDSWIIAPKEYEAYECKGGCFFPLADDVTPTKHAIVQTLVHLKFPTKVSKACCVPTKLSPISVLYKDDMGVPTLKYHYEGMSVAECGCR | binds
Pro-(X)-BMP-9 K357R (natural protein, human, UniProt Q9UK05 23-429, looked up, Human proBMP9 residues 23-429; mutant based on Pro-(X)-BMP-9; also called K357R BMP-9; source: expi293 (suspension HEK293), secreted; purified from conditioned medium by IMAC; not shown: 8xHis, N-terminal, kept) KPLQSWGRGSAGGNAHSPLGVPGGGLPEHTFNLKMFLENVKVDFLRSLNLSGVPSQDKTRVEPPQYMIDLYNRYTSDKSTTPASNIVRSFSMEDAISITATEDFPFQKHILLFNISIPRHEQITRAELRLYVSCQNHVDPSHDLKGSVVIYDVLDGTDAWDSATETKTFLVSQDIQDEGWETLEVSSAVKRWVRSDSTKSKNKLEVTVESHRKGCDTLDISVPPGSRNLPFFVVFSNDHSSGTKETRLELREMISHEQESVLKKLSKDGSTEAGESSHEEDTDGHVAAGSTLAIEGRSSGAGSHCQKTSLRVNFEDIGWDSWIIAPKEYEAYECRGGCFFPLADDVTPTKHAIVQTLVHLKFPTKVGKACCVPTKLSPISVLYKDDMGVPTLKYHYEGMSVAECGCR | binds
Pro-(X)-BMP-9 (natural protein, human, UniProt Q9UK05 23-429, looked up, Human proBMP9 residues 23-429; Behind the rat serum albumin signal peptide, the 8xHis tag and a factor Xa site (IEGR); Secreted unprocessed as a mixture of disulfide-linked dimers and monomers; also called Pro-BMP-9 with the furin site replaced by a factor X site; Pro-BMP-9 wild-type; source: expi293 (suspension HEK293), secreted; purified from conditioned medium by IMAC; not shown: 8xHis, …) KPLQSWGRGSAGGNAHSPLGVPGGGLPEHTFNLKMFLENVKVDFLRSLNLSGVPSQDKTRVEPPQYMIDLYNRYTSDKSTTPASNIVRSFSMEDAISITATEDFPFQKHILLFNISIPRHEQITRAELRLYVSCQNHVDPSHDLKGSVVIYDVLDGTDAWDSATETKTFLVSQDIQDEGWETLEVSSAVKRWVRSDSTKSKNKLEVTVESHRKGCDTLDISVPPGSRNLPFFVVFSNDHSSGTKETRLELREMISHEQESVLKKLSKDGSTEAGESSHEEDTDGHVAAGSTLAIEGRSSGAGSHCQKTSLRVNFEDIGWDSWIIAPKEYEAYECKGGCFFPLADDVTPTKHAIVQTLVHLKFPTKVGKACCVPTKLSPISVLYKDDMGVPTLKYHYEGMSVAECGCR | binds
